Where a chain is given by its changes, count along the chain named.
T1: human DLL3 (human, UniProt Q9NYJ7 27-492, limits assumed)
T1 construct: also called hDLL3; DLL3 protein
T1 sequence: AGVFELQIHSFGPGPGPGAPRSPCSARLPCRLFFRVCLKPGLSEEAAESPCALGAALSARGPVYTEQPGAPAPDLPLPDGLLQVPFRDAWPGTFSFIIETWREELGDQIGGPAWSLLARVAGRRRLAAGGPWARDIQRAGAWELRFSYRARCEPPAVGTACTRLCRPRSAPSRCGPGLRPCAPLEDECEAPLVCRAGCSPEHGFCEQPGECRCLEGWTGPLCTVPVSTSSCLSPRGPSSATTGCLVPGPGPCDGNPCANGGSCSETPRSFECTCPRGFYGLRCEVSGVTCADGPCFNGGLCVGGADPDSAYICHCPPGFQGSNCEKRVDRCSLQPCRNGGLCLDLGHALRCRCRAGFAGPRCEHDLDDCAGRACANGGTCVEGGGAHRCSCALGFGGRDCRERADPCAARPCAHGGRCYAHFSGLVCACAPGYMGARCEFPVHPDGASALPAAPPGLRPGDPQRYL

T2: human ASCL1 (human, UniProt P50553 1-236, limits assumed)
T2 construct: Transcription factor; also called hASCL1; immobilized human ASCL1
T2 sequence (looked up): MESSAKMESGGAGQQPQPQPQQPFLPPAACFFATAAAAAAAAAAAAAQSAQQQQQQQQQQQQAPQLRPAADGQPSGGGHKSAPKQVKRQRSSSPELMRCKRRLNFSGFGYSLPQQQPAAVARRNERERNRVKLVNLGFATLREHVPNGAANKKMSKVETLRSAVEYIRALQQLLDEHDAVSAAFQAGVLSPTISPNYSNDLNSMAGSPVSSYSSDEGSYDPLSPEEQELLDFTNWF

B1: chimeric SC16.34 (antibody, human IgG1, kappa, V domains shown)
VH: QIQLVQSGPELKRPGETVKISCKASGYTFTNYGMNWVKQAPGKGLKWMGWINTYTGDPTYADDFKGRFAFSLETSASTAYLQINNLKNEDTATYFCARIGGNSPSDYWGQGTSLTVSS
VL: SIVMTQTPKFLLVSAGDRVTITCKASQSVSNDVAWYQQKPGQSPKLLIYYASNRYSGVPDRFTGSGYGTDFTFTISTVQAEDLAVYFCQQDYSSPWTFGGGTKLEIKR
notes: murine V regions on human IgG1/kappa; also called chimeric parent antibody of hSC16.34
B2: chimeric SC16.56 (antibody, human IgG1, kappa, V domains shown)
VH: B1 VH with R13K, G49A, D57E, Y80S, N84I, G101D, N102S, S113T
VL: B1 VL with A34V, S56T, T63A, T72S, S93T, K107R
notes: murine V regions on human IgG1/kappa; also called chimeric parent antibody of hSC16.56
B3: hSC16.15 (antibody, human IgG1, kappa, V domains shown)
VH: QVQLVQSGAEVKKPGASVKVSCKASGYTFTRYWIHWIRQAPGQGLEWMGYINPTTVYTEFNQNFKDRVTMTRDTSTSTVYMELSSLRSEDTAVYYCARGGSNFFDYWGQGTTVTVSS
VL: AIQLTQSPSSLSASVGDRVTITCRASENIYYNLAWYQQKPGKAPKLLIYTANSLEDGVPSRFSGSGSGTDFTLTISSLQPEDFATYFCKQAYDVPPTFGGGTKLEIKR
notes: humanized IgG1/kappa; also called humanized SC16.15
B4: chimeric SC16.15 (antibody, human IgG1, kappa, V domains shown)
VH: QVQLQQSGAELAKPGASVKMSCKASGYTFTRYWIHWIKQRPGQGLEWIGYINPTTVYTEFNQNFKDKATLTADKSSTTASMQLSSLTSEDSAVYYCARGGSNFFDYWGQGTTLTVSS
VL: DIQMTQSPASLAASVGETVAITCRASENIYYNLAWYQQKQGKSPQLLIYTANSLEDGVPSRFSGSGSGTQYSLKINSMQPEDSATYFCKQAYDVPPTFGGGTKLEIKR
notes: murine V regions on human IgG1/kappa; also called chimeric parent antibody of hSC16.15
B5: chimeric SC16.25 (antibody, human IgG1, kappa, V domains shown)
VH: QVTLKESGPGILQPSQTLSLTCSFSGFSLSTSGMGVGWIRQPSGEGLEWLTDIWWDDNKYYNPSLKSRLTISKDTSSNQVFLNITSVDTADTATYYCARRVNYYYDPYYAMDYWGQGTSVTVSS
VL: QIVLTQSPAIMSASPGEKVTMTCSASSSVSYMHWYQQKSGTSPKRWIYDSSKLASGVPARFSGSGSGTSYSLTISSMEAEDAATYYCQQWSSNPLTFGAGTKLELKR
notes: murine V regions on human IgG1/kappa; also called chimeric parent antibody of hSC16.25
B6: hSC16.25 (antibody, human IgG1, kappa, V domains shown)
VH: QITLKESGPTLVKPTQTLTLTCTFSGFSLSTSGMGVGWIRQPPGKALEWLTDIWWDDNKYYNPSLKSRLTITKDTSKNQVVLTMTNMDPVDTATYYCARRVNYYYDPYYAMDYWGQGTLVTVSS
VL: EIVLTQSPDFQSVTPKEKVTITCSASSSVSYMHWYQQKPDQSPKLLIKDSSKLASGVPSRFSGSGSGTDFTLTINSLEAEDAATYYCQQWSSNPLTFGQGTKLEIKR
notes: humanized IgG1/kappa; also called humanized SC16.25
B7: hSC16.34 (antibody, human IgG1, kappa, V domains shown)
VH: QVQLVQSGAEVKKPGASVKVSCKASGYTFTNYGMNWVRQAPGQRLEWMGWINTYTGDPTYADDFKGRVTITRDTSASTAYMELSSLRSEDTAVYYCARIGGNSPSDYWGQGTTVTVSS
VL: DIQMTQSPSSLSASVGDRVTITCKASQSVSNDVAWYQQKPGKVPKLLIYYASNRYSGVPSRFSGSGSGTDFTLTISSLQPEDVATYFCQQDYSSPWTFGGGTKVEIKR
notes: humanized IgG1/kappa; also called humanized SC16.34
B8: hSC16.56 (antibody, human IgG1, kappa, V domains shown)
VH: B7 VH with R44G, D57E, I70M, R72T, A76T, S84R, E89D, G101D, N102S, T113L
VL: EIVMTQSPATLSVSPGERATLSCKASQSVSNDVVWYQQKPGQAPRLLIYYASNRYTGIPARFSGSGSGTEFTLTISSLQSEDFAVYYCQQDYTSPWTFGQGTKLEIKR
notes: humanized IgG1/kappa; also called humanized SC16.56
B9: hSC16.13 (antibody, human IgG1, kappa, V domains shown)
VH: QITLKESGPTLVKPTQTLTLTCTFSGFSLSTSGMGVGWIRQPPGKALEWLAHIWWDDVKRYSPSLKSRLTITKDTSKNQVVLTMTNMDPVDTATYYCARIVSFDNDVVSAMDYWGQGTLVTVSS
VL: DIQMTQSPSSLSASVGDRVTITCSASSSVSYMYWYQQKPGKAPKLLIYLTSNLASGVPSRFSGSGSGTDFTLTISSLQPEDFATYYCQQWRSNPFTFGQGTKLEIKR
notes: humanized IgG1/kappa; also called humanized SC16.13
B10: SC72.94 (antibody, V domains shown)
VH: QVQLQQPGTELVKPGASVKLSCKASAYTFTSLWIHWVKQRPGQGLEWIGDINPSIGDTYYNERFKSKATLTVDKSSSTAYMQLSSLTSEDSAVYYCTTGDSWGQGTTLTVSS
VL: DIQMNQSPSSLSASLGDTITITCRASQGISIWLSWYQQKPGNIPKLLIYKASNLHTGVPPSFSGSGSGTDFTLTISSLQPEDIATYYCLQSQSYPWTFGGGTKLEIK
notes: murine mAb
B11: SC72.132 (antibody, V domains shown)
VH: EVKLVESEGGLVQPGSSMKLSCTASGFTFSDYYMAWVRQVPEKGLEWVATIDYDGSNTYYLDSLKSRFIISRDNAKNILYLQMSSLKSEDTATYYCARDGGYDEDYFDYWGQGTTLTVSS
VL: DIVMSQSPSSLAVSVGEKVTLSCKSSQTLLYSSNQQNYLAWYQQKPGQSPKLLIYWASTRESGVPDRFTGSGSGTDFTLTISSVKAEDLAVYYCHQYYTYPFTFGSGTKLEIK
notes: murine mAb
B12: SC72.91 (antibody, V domains shown)
VH: QVQLQQSGPEVVKPGASVKLSCKASGYTFTTYDINWVKQRPGQGLEWIGWIYFRDGTNKYNEKFKGKATLTVDTSSSTAYMELHSLTSEDSAVYFCASVYDGYYVSGFDIMDYWGQGTSVTVSS
VL: DVVLTQTPLSLPVSLGDQASIYCRSSQSIVHSNGNTYFEWYLQKPGQSPKLLIYKVSNRLSGVPDRFSGSGSGTDFTLKISRVEAVDLGIYYCFQASHVPFTFGAGTKLELK
notes: murine mAb
B13: SC72.96 (antibody, V domains shown)
VH: EVQLQQSGPELVKPGASVKMSCKASGYTLTAYNIHWVKQSHGKSLEWIGFINPHSGGTTYNEKFKGKATLTVNKSSSTANMELRSLTSEDSAVYYCASIYYYGSSYFDHWGQGTTLTVSS
VL: DIQMTQSPASLSASVGETVTMTCRASENIHSNLVWYQQKQGKSPQLLVYAATNLADGVPSRFSGSGSGSQFSLKIDSLQPEDFGSYLCQHFYGTPRTFGGGTKLEIK
notes: murine mAb
B14: SC72.165 (antibody, V domains shown)
VH: QVQLQQPGAELVRPGASVRLSCKASGYSFTSYWINWVKQRPGQGLEWIGNIYPGSSNTNYNEKFKRKATLTVDTSSSTAYMQLSSLTSDDSAVYYCARSESDYWGQGTTLTVSS
VL: DIVLTQSPASLAVSPGQRATISCKASQSVGYDGDTYLSWYQQKPGQPPKLLIYGVSILESGIPARFSGSGSGTDFTLNIHPVEEEDAATYYCQQSSEDPYTFGGGTKLEIK
notes: murine mAb
B15: SC72.181 (antibody, V domains shown)
VH: B14 VH with L11V, R13K, S28T, N57S, R66S, A97S
VL: B14 VL with P15L, G30D, Y31D, D34G, L37M, S56F, S96N
notes: murine mAb
B16: SC72.216 (antibody, V domains shown)
VH: QIQLVQSGPELRKPGETVKISCKASGYTFTNYPMHWVKQAPGKGFKWMGWINTYSGVPSYADDFKGRFAFSLETSASSAYLQINNLKNEDMATYFCARHNYNSYDVFAYWGQGTLVTVSA
VL: B14 VL with L4V, P15L, G30D, T35S, L37M, S38N, V55A, I57N, S96N
notes: murine mAb
B17: SC72.201 (antibody, V domains shown)
VH: EVNLEESGGGLVQPGGSMKLSCVASGFTFSNYWMNWVRQSPEKGLEWVAQIRSKSDNYATHYAESVKGRFTISRDDSKSSVYLQMNNLRSEDTGIYYCRTGPDVWGTGTTVTVSS
VL: DIQMTQSPASLSVSVGETVTITCRASENIYSSLAWYQQKQGNSPQLLVYAATKLADGVPSRFSGSGSGTQYSLKINSLQSEDFGSYYCQHFWGTTWTFGGGTKLEIK
notes: murine mAb

These binders were tested against T1, human DLL3 (assay: surface plasmon resonance).

| binding result | Binder |
| --- | --- |
| binds | B1 |
| binds | B2 |
| binds | B3 |
| binds | B4 |
| binds | B5 |
| binds | B6 |
| binds | B7 |
| binds | B8 |
| binds | B9 |

The binders below were run against T2, human ASCL1 (assay: screen on immobilized hASCL1 or h293-hASCL1 cells).

| binding result | Binder |
| --- | --- |
| binds | B10 |
| binds | B11 |
| binds | B12 |
| binds | B13 |
| binds | B14 |
| binds | B15 |
| binds | B16 |
| binds | B17 |
